From the supplement of paper PMC9170038

Test system: K4 kissing-loop RNA reporter
Assay: apparent KD of K4 kissing-loop reporter; higher = weaker reporter binding
Settings: Eterna round: R107
Procedure: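 RNA-MaP round R107: designed RNA switches with theophylline, tryptophan, arginine or FMN aptamers are transcribed on-chip within common flanks. They are titrated with a labelled K4 kissing-loop RNA reporter in RNA-MaP buffer (100 mM Tris pH 7.5, 80 mM KCl, 4 mM MgCl2), without ligand or with the indicated ligand. Median apparent KD per design.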

[1] = input ligand: theophylline 20 uM
[2] = input ligand: tryptophan 2.4 mM
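Further: bound reporter read as fluorescence of individual clusters on recovered sequencing chips by microscopy, with normalized cluster intensities fitted with a binding model.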

| Sequence | apparent KD of K4 kissing-loop reporter (input ligand: FMN 200 uM) [nM] | apparent KD of K4 kissing-loop reporter (input ligand: arginine 13.2 mM) [nM] | apparent KD of K4 kissing-loop reporter (input ligand: none) [nM] | apparent KD of K4 kissing-loop reporter [1] [nM] | apparent KD of K4 kissing-loop reporter [2] [nM] |
| --- | --- | --- | --- | --- | --- |
| GGGAGUAGUGCGGCCGCCACUGAGAAAGAAGAAGAAUGUAGUGAUGUUAUGUAGGAAAGGAAGAACAGGACCGGGCAUUAGAUUU [SSTRyptB.H] | 478 | 443 | 354 | 840 | 497 |
| CAUACGCAUGGAGGAUAUGAGAUUACUCAUAUUAUUUAAUAUUCUCAGUGAUGUUGAGAUAUAAACUCAGAAGGCCAUGUGUAUG [Ex FMN B 1] | 184 | 152 | 143 | 166 | 153 |
| AAUAAAAUCACGGCCGCCACUGAAUAAUUACGAAGUAGUGAUGUUACUUCACAUAUCUUAUUUAACAGGACCGGGUGAAUAUUUA [#16 K4 Tryptophan B Exclusion] | 72.3 | 66.3 | 70.9 | 65.1 | 81.8 |
| UGUCAUUGGUCUGAUACCAGUACCCUUGGCAGCCAAGGAGUGAUGUUCCAAGGAUACCAGUACCCUUGGCAGCAGACCGAUGACU [TheoBS 25 #DoubleAptamer #SwitchBubble] | 884 | 802 | 758 | 194 | 964 |
| ACACUUUACGUAGGAUAUGCGACGAGUGAUGUUCGUCAGGCGGCUUUAGCUUAAUCAGGCCGCCUAGCAGAAGGACGGGCAGUGU [Zaretiesre] | 142 | 149 | 199 | 195 | 181 |
| AAAUGUUUGUAUUUGAACAAUUUCUUUAGGGAGGAUAUUGGUAAUACAAGAAGGCCCUGAUGGGAGUGAUGUUCCCAUAACGCGG [Exclusion FMN A GF15] | 46.7 | 83.9 | 74 | 87.5 | 62.1 |
| GGCAUAGUCUCAACGUGUGGUUGGGUUGGGAAGGAUAUUUGAUCGAAAAGAAGGUCCCGCAUUGAGUGAUGUUCAAGGGCUCCAA [theeternabot_exclusion_KL_FMN_A_26] | 226 | 220 | 262 | 213 | 246 |
| UUUCGGCUCUGAGGAUAUUCGGACAAAUAUAGUGAUGUUGUAUAAGGAGGAGGGUGUUGGCAGUGAGGAGAAGGCAGAGGAGGAU [#07 K4 FMN B Exclusion] | 376 | 208 | 397 | 358 | 214 |
| AAACGCUGUGAAUAACACAGCGAAAAUUCGCGAGGACCGGUACGGCCGCCACUCGCUAACUGCGAGUGAUGUUCGAUAAUAAAAU [Mat - Mod of OpenEnded 3 - D11] | 182 | 94.8 | 198 | 210 | 105 |
| GGCUUAUUCUAUGAUACCAGCGUCACAUCGGGACUGCGCACGCAGCAGGCGAGUGAUGUUCGCCCUUGGCAGCAUCUCGGCGACU [theeternabot_exclusion_KL_Theo_B_26] | 373 | 230 | 249 | 250 | 232 |
| AUUCUUAUAAUAACACUAUAUACAACUGAAGGAGCGACAAUAAAGUCAGGUAGGUCGCAGAAUAAAUGAGUGAUGUUCAUUUUUA [JR_ExcArginiA_Sub011] | 129 | 153 | 129 | 150 | 86.8 |
| GGUGACAACCAGAGGUGAUGUAUAGUAUCGCGAGGACCGGUACGGCCGCCACUCGUGAAGAGAAAGGAGUGAUGUUCCGUAAUGG [Kazoo C7] | 287 | 276 | 272 | 390 | 138 |
| AUUCAGAUCUGAAGGAGCGCCUUGACAAAUUACUGCUUUGAGCAGUGAUGUUGCUCAAUUAGGCAGGUAGGUCGCAGAUCUAACC [Arg B Ex t7] | 377 | 335 | 414 | 383 | 389 |
| GGAAGACACCUGAGUGAUGUUCGGGUGUGCCGAGGACCGGUACGGCCGCCACUCGGGUGGUACAGUUACUGAUUGGACCGCUAUC [Arbirace] | 127 | 203 | 275 | 603 | 204 |
| CCAUUCUUUUACGAUACCAGUCUAAUAUAUUGAAUCAAAACCCUCGCCGAGUGAUGUUCGGACCCUUGGCAGCGUCUGCGAGAGG [xwxxtkmullin] | 629 | 542 | 602 | 549 | 498 |
| GCCGUACGCAUGGAUACCAGUCUAAGAGUGAUGUUCUUACCGAUUGCGCCUGGAUCAUUAGACCCUUGGCAGCCAUGCGUACGGC | 155 | 117 | 126 | 148 | 146 |

| Sequence | apparent KD of K4 kissing-loop reporter (input ligand: FMN 200 uM) [nM] | apparent KD of K4 kissing-loop reporter (input ligand: arginine 13.2 mM) [nM] | apparent KD of K4 kissing-loop reporter (input ligand: none) [nM] | apparent KD of K4 kissing-loop reporter [1] [nM] | apparent KD of K4 kissing-loop reporter [2] [nM] |
| --- | --- | --- | --- | --- | --- |
| GGAGAGAACUGAAGGAGCGGCAAGAGAGAAGGAAAUAUAGUGAUGUUAUAUAAGAGAGAGAGCCAGGUAGGUCGCAGAGGGAGGA [ExArgB.A] | 201 | 153 | 147 | 164 | 149 |
| AUUUAAUUAACUGAUACCAGACUUUUUGUUUUGUUUAUUACUAGUGAUGUUAGUGUUUCUGUCCCUUGGCAGCAGAAUCUACUUA [JR_ExcTheophyB_Sub019] | 172 | 297 | 191 | 364 | 165 |
| AGAGUUAUGCGAGGAUAUGCGGUUAGUACUCAAAGAGUACUAACGCAGAGUGAUGUUCUGUGAAACACAGAAGGUGCAUAACUCA [Omei KL FMN B SS B v2] | 950 | 116 | 249 | 205 | 148 |
| AAAAUAAACCAGUGAUGUUGGUAUCCGGAUACCAGCGAUAAUCAUCGCCCUUGGCAGCCGCGGACGUACAAAAUAAGUACGUCCU [MatMod 14 - Jieux - Same State - Theophylline A] | 208 | 135 | 175 | 268 | 182 |
| AAAUGCUUGUAUUUGAACAAUUCCUUUAGGGAGGAUAUUGGUAAUACAAGAAGGCCCUGAUGGGAGUGAUGUUCCCAUAACGCGG [Exclusion FMN A GF16] | 114 | 95 | 90.8 | 90.2 | 91.1 |
| AAUAAGCGCCGAAGGAGCGGCCUCCGAGUGAUGUUCGGUGAGAUGCCAGUGAUGUUGGCCGGCCAGGUAGGUCGCGGCAAAGCUU [Same State Arginine B GF 29] | 154 | 140 | 161 | 131 | 128 |
| AUAGGAGUGAUGUUCCUUAGUUUCUCCGAUACCAGUAUGGAAACAUACCCUUGGCAGCGGGAAACCGCUGAUUAGGAAACUAGUC [Theophylline A K4 7] | 256 | 271 | 282 | 242 | 223 |
| CACGGAGUGAUGUUCCGACCGAGGAACGAUACCAGACAAGUAUACGUCCCUUGGCAGCGUUUCUUAUAUAGUCAACGUUACCGUA [Theo A Ex t3] | 395 | 469 | 507 | 537 | 405 |
| AGUGGUGUAUCUUUUAAGAGUGAUGUUUUUCGAGGACCGGUACGGCCGCCACUCGAGUGAUGAGAGCGUCGUUGUGGUGAUUAGU [#15 K4 Tryptophan A Exclusion] | 814 | 582 | 877 | 860 | 479 |
| GCCGUACGCAUGGAUACCAGAUGGCACUAUUUUCUCCCAGAGUGAUGUUCUGGCCUGCCUAUCCCUUGGCAGCCAUGCGUACGGC | 806 | 616 | 800 | 488 | 671 |
| UUCCACCGAGAAGGAUAUUAUGCUGGACUUGUUUAAGUGUUAAAUAGUGAUGUUAUUUGAUCGGAAUAAGAAGGUCUCAAGUUGA [theeternabot_sameState_KL_FMN_B_44] | 155 | 131 | 145 | 142 | 119 |
| UCACGAGUGAUGUUCGUCGCAAUCACCGAAGGAGCGGGCGAAAGCCCAGGUAGGUCGCGGUAGAAUAAUGAUUUUAUUCGAUUGC [Same State Arginine A GF 26] | 786 | 602 | 756 | 613 | 568 |
| GGGAAGAAGGCGGCCGCCACUGCAGAAGAGACAGAGAGGGAAGAAGAGGAGUGAUGUUCCAAGAACAGGACCGGGCCAAGAAGGG [whbob_SS_Tryp_B_t29] | 598 | 137 | 119 | 284 | 92.9 |
| GCUCAGGAGUGAUGUUCCUAGUGAUGUUAACGAGGACCGGUACGGCCGCCACUCGAUACGGCCGGACCGUAGGAUAAACUAGAGC [Same State - Tryptophan A (Freestyle 10)] | 292 | 238 | 261 | 351 | 340 |
| GAUAUAGUGAUGUUAUAUACUGAUAGACAACGAGGACCGGUACGGCCGCCACUCGAGAGGGUGAAAAUGAUGAUAAAAUAAUGAU [#02 K4 Tryptophan A Exclusion] | 329 | 318 | 333 | 306 | 278 |
| AGAGUACGAAAGUACUCCUCUACACACUGACGAGGACCGGUACGGCCGCCACUCGAGUUGAGUGAUGUUCGACAGUGUGUAGAGA [Omei KL Tryp A SS C v1] | 120 | 22.3 | 25.6 | 163 | 783 |
